Source: patent US20220324977A1 (BEIJING SINOGENE BIOTECHNOLOGY, published 2022)
Values belong to the binder of their own block, whether it stands above or below them.

Experiments:
[1] = molecular target: T1, canine PD-1 protein amino acids 25-168 with His tag (canine, UniProt A0A090BAM7 25-168); test: kinetics, PD-1 His 111.3 nM
T1 construct: Expressed in Expi293F cells; used as immunogen and as antigen in ELISA and Octet; also called PD-1 His

[2] = molecular target: T1, canine PD-1 protein amino acids 25-168 …; test: kinetics, global fit over PD-1 His 1.1-1000 nM
[3] = molecular target: T1, canine PD-1 protein amino acids 25-168 …; test: kinetics, PD-1 His 37.3 nM
[4] = molecular target: T1, canine PD-1 protein amino acids 25-168 …; test: kinetics, PD-1 His 1000.0 nM
[5] = molecular target: T1, canine PD-1 protein amino acids 25-168 …; test: kinetics, PD-1 His 4.0 nM
[6] = molecular target: T1, canine PD-1 protein amino acids 25-168 …; test: kinetics, global fit over the PD-1 His series 1.1-1000.0 nM
[7] = molecular target: T2, PD1 on the surface of T cells (canine PBMC stimulated with ConA) (canine, UniProt A0A090BAM7 25-288); test: flow cytometry on ConA-stimulated canine PBMC, stained with anti-CD3-FITC and the caninized antibody, detected with PE-labeled anti-canine IgG; quadrant plot FITC against PE; no unstained or isotype control shown
T2 construct: also called canine PD-1
Protocol: (§1) The cells were stimulated by 0.5 μg/mL ConA for 3 days, and collected. PBMC was incubated with canine-anti-CD3-FITC and caninized monoclonal antibodies C1, C3 and C11 respectively. Then the cells were incubated again with PE-labeled canine-IgG antibody. […] Moreover, the results also indicate that the caninized monoclonal antibodies C1, C3 and C11 have potential blocking effect on the PD1/PD-L1 signaling pathway, and thus have protective effect on the function of T cells (see FIG. 14).

[8] = molecular target: T1, canine PD-1 protein amino acids 25-168 …; test: kinetics, PD-1 His 333.3 nM
[9] = molecular target: T1, canine PD-1 protein amino acids 25-168 …; test: kinetics, PD-1 His 12.4 nM
[10] = molecular target: T1, canine PD-1 protein amino acids 25-168 …; test: kinetics, PD-1 His 1.1 nM
[11] = molecular target: T2, PD1 on the surface of T cells (canine …); test: flow cytometry, ConA-stimulated canine PBMC, CD3-FITC and PE-labeled anti-canine IgG
Protocol: as §1

[12] = molecular target: T3, PD1-Fc (canine, UniProt A0A090BAM7 25-168); test: Octet BLI competition, competitor PD-L1 Fc on AHC sensor, PD1 Fc 50 nM preincubated with supernatant 1/2
T3 construct: also called Only Ag (PD1 Fc)
Protocol: (§2) D-L1 Fc ([…]) was loaded on an AHC sensor for cross-linking assay. Epitope analysis was used to determine the binding of antibodies loaded on the sensor to recombinant antibodies preincubated with PD1-Fc. The binding (response) degrees observed were compared to that of antigen only under the same conditions. If the total response of an antibody was higher than that of antigen only, the antibody would be matched. If the response of an antibody was lower than 80% of that of antigen, the antibody would be blocked with each other.

[13] = molecular target: T1, canine PD-1 protein amino acids 25-168 …; test: Octet BLI, supernatant captured by anti-mouse IgG Fc, PD-1 His 20 nM
Protocol: Octet BMIA was used to determine the affinity of the supernatant of the PD-1A clone culture to PD-1 His. Anti-mouse IgG Fc was added to each clone supernatant to capture competence factors.

[14] = molecular target: T3, PD1-Fc; test: Octet BLI competition, competitor PD-L1 Fc on AHC sensor, against PD1 Fc only
Protocol: as §2

[15] = molecular target: T1, canine PD-1 protein amino acids 25-168 …; test: ELISA, PD-1 His 100 ng/mL, clone supernatant

T1 sequence (A0A090BAM7 entry or part of it limits assumed): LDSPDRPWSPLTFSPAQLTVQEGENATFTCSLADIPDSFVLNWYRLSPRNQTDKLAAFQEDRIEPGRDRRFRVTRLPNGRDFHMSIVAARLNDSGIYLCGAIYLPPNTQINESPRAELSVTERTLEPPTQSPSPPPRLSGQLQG
T2 sequence (A0A090BAM7 entry or part of it limits assumed): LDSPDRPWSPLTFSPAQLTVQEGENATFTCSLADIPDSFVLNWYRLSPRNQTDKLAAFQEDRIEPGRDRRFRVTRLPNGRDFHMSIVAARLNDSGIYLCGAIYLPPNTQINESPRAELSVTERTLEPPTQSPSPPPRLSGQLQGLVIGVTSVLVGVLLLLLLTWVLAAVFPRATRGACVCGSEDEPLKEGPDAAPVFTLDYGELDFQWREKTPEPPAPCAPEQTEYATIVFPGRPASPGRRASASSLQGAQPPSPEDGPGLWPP

Kd [1]: 2.06 nM
Response (nm) [1]: 0.016 nm
koff [1]: 0.000886 s⁻¹
kon [1]: 430000 M⁻¹ s⁻¹
Kd [2]: 1.59 nM
koff [2]: 0.401 s⁻¹
kon [2]: 2.51e+08 M⁻¹ s⁻¹
Kd [3]: 2.65 nM
Response (nm) [3]: 0.008 nm
koff [3]: 0.00953 s⁻¹
kon [3]: 3.6e+06 M⁻¹ s⁻¹
Response (nm) [4]: 0.001 nm
Kd [5]: 18.4 nM
Response (nm) [5]: 0.005 nm
koff [5]: 1.27 s⁻¹
kon [5]: 6.93e+07 M⁻¹ s⁻¹
Kd [6]: 1.59 nM
koff [6]: 0.401 s⁻¹
kon [6]: 2.51e+08 M⁻¹ s⁻¹
% of cells in quadrant Q2 (Comp-FITC-A positive, Comp-PE-A positive) [7]: 57.9%
Response (nm) [8]: -0.004 nm
Kd [9]: 2.46 nM
Response (nm) [9]: 0.001 nm
koff [9]: 0.0198 s⁻¹
kon [9]: 8.05e+06 M⁻¹ s⁻¹
Response (nm) [10]: -0.031 nm
PD1 positive cells in T cells [11]: 94.6%
B1: caninized monoclonal antibody C1 (antibody, V domains shown)
VH: EVQLQQSGAELVKPGASVKLSCTASGFNIKDTYMHWVKQRPEQGLEWIGRIDPAIDNTKYDPKFQGKATITADTSSNTAYLQLSSLTSEDTAVYYCASGFYTMDYWGQGTSVTVSS
VL: QIVLTQSPAIMSASPGEKVTMTCSASSSVTYMYWFQQKPGSSPRLWIYDTSNLVSGVPARFSGSRSGTSYSLTISSMEAEDAATYYCQQYSGHPSSFGSGTKLEIKR
notes: Variable domains as for M1; also called C1(35.38); 35.38

Kd [1]: < 0.001 nM
Response (nm) [1]: 0.026 nm
koff [1]: < 1e-07 s⁻¹
kon [1]: 14700 M⁻¹ s⁻¹
Kd [2]: < 0.001 nM
koff [2]: < 1e-07 s⁻¹
kon [2]: 626 M⁻¹ s⁻¹
Kd [3]: < 0.001 nM
Response (nm) [3]: 0.017 nm
koff [3]: < 1e-07 s⁻¹
kon [3]: 40500 M⁻¹ s⁻¹
Kd [4]: < 1 pM
Response (nm) [4]: 0.007 nm
koff [4]: < 1e-07 s⁻¹
kon [4]: 330 M⁻¹ s⁻¹
Response (nm) [5]: 0.009 nm
Kd [6]: < 0.001 nM
koff [6]: < 1e-07 s⁻¹
kon [6]: 626 M⁻¹ s⁻¹
% of cells in quadrant Q2 (Comp-FITC-A positive, Comp-PE-A positive) [7]: 53.1%
Kd [8]: < 1 pM
Response (nm) [8]: 0.01 nm
koff [8]: < 1e-07 s⁻¹
kon [8]: 1760 M⁻¹ s⁻¹
Response (nm) [9]: 0.005 nm
Response (nm) [10]: 0.002 nm
PD1 positive cells in T cells [11]: 96.2%
B3: caninized monoclonal antibody C3 (antibody, V domains shown)
VH: EVRLQQSGAELVKPGASVKLSCTASGFNIKDTYLHWLKERPEQGLEWIGRIDPAIGNTRYDPKFQVKATITADTSSNTAYLQLSSLTSEDSAVYYCARGFYGMDYWGQGTSVTVSS
VL: QIVLTQSPAIMSASPGEKVTMTCSASSSVSYMFWYQQKPGSSPRLWIYDTSNLVSGVPARFSGSRSGTSYSLTISSMEAEDAATYYCQQYSGYPYTFGGGTKLEIKR
notes: Variable domains as for M3; also called C3(36.39); 36.39

Response (nm) [12]: 0 nm
Kd [13]: 0.537 nM
Response (nm) [13]: 0.061 nm
koff [13]: 0.000159 s⁻¹
kon [13]: 296000 M⁻¹ s⁻¹
% response [14]: -0.47%
O.D. determined by ELISA [15]: 2.58
B5: PD-1 A-M23 (antibody, mouse IgG1, V domains shown)
VH: EVRLQQSGAELVKPGASVKLSCTASGFNIKDTYLHWLKERPEQGLEWIGRIDPAIGNTRYDPKFQVKATITADTSSNTAYLQLSSLTSEDSAVYYCARGFYGMDYWGQGTSVTVSS
VL: QIVLTQSPAIMSASPGEKVTMTCSASSSVSYMFWYQQKPGSSPRLWIYDTSNLVSGVPARFSGSRSGTSYSLTISSMEAEDAATYYCQQYSGYPYTFGGGTKLEIK
notes: Mouse IgG1 kappa, hybridoma supernatant; also called 18A08

Continued, binder first:

B2: PD-1 A-M3 (antibody, mouse IgG1, V domains shown)
VH: EVRLQQSGAELVKPGASVKLSCTASGFNIKDTYLHWLKERPEQGLEWIGRIDPAIGNTRYDPKFQVKATITADTSSNTAYLQLSSLTSEDSAVYYCARGFYGMDYWGQGTSVTVSS
VL: QIVLTQSPAIMSASPGEKVTMTCSASSSVSYMFWYQQKPGSSPRLWIYDTSNLVSGVPARFSGSRSGTSYSLTISSMEAEDAATYYCQQYSGYPYTFGGGTKLEIK
notes: Mouse IgG1 kappa, hybridoma supernatant; also called 4G01
Response (nm) [12]: -0.002 nm
Kd [13]: < 0.001 nM
Response (nm) [13]: 0.041 nm
koff [13]: < 1e-07 s⁻¹
kon [13]: 174000 M⁻¹ s⁻¹
% response [14]: -5%
O.D. determined by ELISA [15]: 2.87

B4: PD-1 A-M10 (antibody, mouse IgG1, V domains shown)
VH: EVRLQQSGAELVKPGASVKLSCTASGFNIKDTYLHWLKERPEQGLEWIGRIDPAIGNTRYDPKFQVKATITADTSSNTAYLQLSSLTSEDSAVYYCARGFYGMDYWGQGTSVTVSS
VL: QIVLTQSPAIMSASPGEKVTMTCSASSSVSYMFWYQQKPGSSPRLWIYDTSNLVSGVPARFSGSRSGTSYSLTISSMEAEDAATYYCQQYSGYPYTFGGGTKLEIK
notes: Mouse IgG1 kappa, hybridoma supernatant; also called 8H01
Response (nm) [12]: 0.006 nm
Kd [13]: 0.0306 nM
Response (nm) [13]: 0.044 nm
koff [13]: 6.96e-06 s⁻¹
kon [13]: 227000 M⁻¹ s⁻¹
% response [14]: 12%
O.D. determined by ELISA [15]: 2.83

B6: PD-1 A-M15 (antibody, mouse IgG1, V domains shown)
VH: EVRLQQSGAELVKPGASVKLSCTASGFNIKDTYLHWLKERPEQGLEWIGRIDPAIGNTRYDPKFQVKATITADTSSNTAYLQLSSLTSEDSAVYYCARGFYGMDYWGQGTSVTVSS
VL: QIVLTQSPAIMSASPGEKVTMTCSASSSVSYMFWYQQKPGSSPRLWIYDTSNLVSGVPARFSGSRSGTSYSLTISSMEAEDAATYYCQQYSGYPYTFGGGTKLEIK
notes: Mouse IgG1 kappa, hybridoma supernatant; also called 11E10
Response (nm) [12]: -0.005 nm
Kd [13]: 10.4 nM
Response (nm) [13]: 0.068 nm
koff [13]: 0.000608 s⁻¹
kon [13]: 58500 M⁻¹ s⁻¹
% response [14]: -8.21%
O.D. determined by ELISA [15]: 2.34

B7: PD-1 A-M1 (antibody, mouse IgG1, V domains shown)
VH: EVQLQQSGAELVKPGASVKLSCTASGFNIKDTYMHWVKQRPEQGLEWIGRIDPAIDNTKYDPKFQGKATITADTSSNTAYLQLSSLTSEDTAVYYCASGFYTMDYWGQGTSVTVSS
VL: QIVLTQSPAIMSASPGEKVTMTCSASSSVTYMYWFQQKPGSSPRLWIYDTSNLVSGVPARFSGSRSGTSYSLTISSMEAEDAATYYCQQYSGHPSSFGSGTKLEIK
notes: Mouse IgG1 kappa, tested as hybridoma supernatant; also called 2C08
Response (nm) [12]: -0.009 nm
Kd [13]: 144 nM
Response (nm) [13]: 0.049 nm
koff [13]: 0.00044 s⁻¹
kon [13]: 3060 M⁻¹ s⁻¹
% response [14]: -21.9%
O.D. determined by ELISA [15]: 2.65

B8: PD-1 A-M11 (antibody, V domains shown)
VH: EVQLQQSGAEVVKPGASVKLSCTASGFNIKDTYMHWVKQRPEQGLEWIGRIDPAIGNPKYDPKFQGRATITADTSSNTAYLQLSSLTSEDTAVYYCASGFYAMDCWGQGTSVTVSS
VL: QIVLTQSPAIMSASPGEKVTMTCSASSSITYMFWYQQKPGSSPRLWIYDTSNLVSGVPARFSGSKSGTSYSLTITSMEAEDAATYYCQQYSGYPSTFGSGTKLEIK
notes: Mouse IgG1 kappa, hybridoma supernatant; The VL is therefore uncertain; also called 9B04
Response (nm) [12]: -0.008 nm
Kd [13]: 0.903 nM
Response (nm) [13]: 0.049 nm
koff [13]: 0.000312 s⁻¹
kon [13]: 346000 M⁻¹ s⁻¹
% response [14]: -16%
O.D. determined by ELISA [15]: 2.66
